This is an account of results in the supplement of paper PMC10567573.

± gives the standard deviation.

The nature of the data set: protein stability index of a GFP-peptide fusion (GPS, HEK-293T) (PSI 1-6); higher = more stable. Conditions: c terminus: a fixed tail appended.
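Also: 24-mer peptide tiles fused after GFP, lentivirally expressed, FACS-sorted into six equal bins by GFP/DsRed ratio, decoded by Illumina sequencing, PSI is the read-weighted mean bin number.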

For ELVGSGYRMSLVKRRFATGMYLVS [FCHO1], the protein stability index reads like this: (treatment: DMSO) 2.46 ± 0.64; (treatment: MLN4924 1 uM, 8 h) 2.26 ± 0.43.
Taken in the same sequence, the figures for EMVRFLLEAGADQEHKTDEMHTAL [ANKRD17] were 2.88 ± 0.38 and 3.05 ± 0.42.
The like results for ENDGFVFKMPWKPTHPSSTHALAE [CDC25B] were, in that order, 3.55 ± 0.44 and 3.36 ± 0.16.
Under “treatment: MLN4924 1 uM, 8 h”, ENEETGEFSIDNYPTDNTKVMIFK [MIA2] showed a protein stability index of 4.217 ± 0.033.
In the case of ENKVVEKAPVQNEAPALGGGEYQE [BEX5], the protein stability index by setting is: (treatment: DMSO) 5.41 ± 0.2; (treatment: MLN4924 1 uM, 8 h) 5.42 ± 0.32.
Taken in the same sequence, the figures for ENMDLNKIDDLMQEITEQQDIAQE [CHMP4C] were 5.6 ± 0.27 and 5.4 ± 0.24.
In the case of ENRRKVLYQRAPRNIHRHVILSEI [TCF25], the protein stability index by setting is: (treatment: DMSO) 2.62 ± 0.073; (treatment: MLN4924 1 uM, 8 h) 2.75 ± 0.31.
Taken in the same sequence, the figures for EPSQMLKHAVVNLINYQDDAELAT [CTNNB1] were 4.16 ± 0.32 and 4.25 ± 0.26.
The like results for EQALGKGCGADSKKKRPPQPPEES [PLK2] were, in that order, 5.24 ± 0.41 and 5.36 ± 0.2.
Taken in the same sequence, the figures for EQCPVIDSQAPAGSLDLVPGGLTL [SPDEF] were 4.07 ± 0.23 and 4.24 ± 0.13.
Turning to EQEKEAQHKDQTAALPLAAEETAN [MAP2], the protein stability index was 5.66 ± 0.12 (treatment: DMSO) and 5.5 ± 0.4 (treatment: MLN4924 1 uM, 8 h).
For EQELYNNFVYNSPRGYFHTFAGDT [WASL], the protein stability index (treatment: DMSO) was 2.73 ± 0.21 and the protein stability index (treatment: MLN4924 1 uM, 8 h) is 2.78 ± 0.32.
EQIHLLLSSQCFSNISRPRDNPMC [M1AP]: the protein stability index reads like this: (treatment: DMSO) 2.25 ± 0.43; (treatment: MLN4924 1 uM, 8 h) 2.33 ± 0.25.
The like results for EQLLARGYAVNVFDIQQGFDNPQV [NSDHL] were, in that order, 2.77 ± 0.19 and 3.54 ± 0.24.
Taken in the same sequence, the figures for EQQHYFNTPFQLSIAPPEAEGVVL [PPTC7] were 3.29 ± 0.38 and 3.56 ± 0.43.
As for ERAKMSSSEVGPFVSKIRAVINDI [AUH], the protein stability index by setting is: (treatment: DMSO) 2.76 ± 0.14; (treatment: MLN4924 1 uM, 8 h) 2.86 ± 0.31.
Taken in the same sequence, the figures for ERKPAATARLSRRGTSLSPPPESS [KISS1] were 5.16 ± 0.17 and 5.26 ± 0.17.
As for ESIQQTARSIAEQAHELAYDPNYM [PPTC7], the protein stability index amounted to 4.52 ± 0.19 (treatment: DMSO) and 4.3 ± 0.37 (treatment: MLN4924 1 uM, 8 h).
Taken in the same sequence, the figures for ESVEQLESRIVEQENAIQTMELRN [SNX8] were 5.41 ± 0.21 and 5.51 ± 0.11.
ETAPLTLESLPTDPLLLILSFLDY [FBXO3]: the protein stability index reads like this: (treatment: DMSO) 2.36 ± 0.19; (treatment: MLN4924 1 uM, 8 h) 2.28 ± 0.19.
The like results for ETDDPRRYQKYGYIGTHEYPHFSH [OAS1] were, in that order, 2.88 ± 0.15 and 3 ± 0.19.
The like results for ETPNSLNTTVIPNGSMAMGTVPGQ [LYSMD4] were, in that order, 4.43 ± 0.19 and 4.42 ± 0.23.
The like results for ETRVWHRRDGKWQIVHFHRSGAPS [CAMK2A] were, in that order, 2.95 ± 0.07 and 3.1 ± 0.25.
As to ETTRNTTGIEESTDGMILGPEDLS [LARP4], the protein stability index runs as follows: (treatment: DMSO) 5.47 ± 0.4; (treatment: MLN4924 1 uM, 8 h) 5.43 ± 0.28.
The like results for ETVKLFICELVMALDYLQNQRIIH [STK32A] were, in that order, 3.39 ± 0.55 and 3.08 ± 0.27.
Taken in the same sequence, the figures for ETVLALVNCISPLKYFSDFRPYFT [DENND6A] were 2.54 ± 0.48 and 3.21 ± 0.83.
Taken in the same sequence, the figures for EVKTRHSEKSQREDEEEEEGENYQ [CHGB] were 5.64 ± 0.28 and 5.48 ± 0.31.
Regarding EVSQQDPSHGEVGEHKDRIERQWG [ZSCAN9], the protein stability index is, setting by setting: (treatment: DMSO) 4.69 ± 0.18; (treatment: MLN4924 1 uM, 8 h) 4.95 ± 0.15.
As for FALASLLQSAPDVKGRVRCLTAGP [ZSWIM9], the protein stability index was found to be 2.02 ± 0.29 (treatment: DMSO) and 2.42 ± 0.24 (treatment: MLN4924 1 uM, 8 h).
As to FALGLGFGGVIAFSSYNKQDNNCH [SLC6A17], the protein stability index runs as follows: (treatment: DMSO) 2.01 ± 0.4; (treatment: MLN4924 1 uM, 8 h) 2.44 ± 0.52.
Regarding FANLIKEFVIIDCRYPYEYEGGHI [CDC25A], the protein stability index came out at 2.98 ± 0.51 (treatment: DMSO) and 2.76 ± 1.1 (treatment: MLN4924 1 uM, 8 h).
As to FATRPGAIETAMEDLKGHVAETSG [TPRG1], the protein stability index is, setting by setting: (treatment: DMSO) 4.45 ± 0.31; (treatment: MLN4924 1 uM, 8 h) 4.81 ± 0.19.
Taken in the same sequence, the figures for FDSSRQRAEGTDIPTVKPLKPRPE [ZC2HC1A] were 5.02 ± 0.099 and 5.09 ± 0.14.
Take FFFAVLHAIYSLSYPMRRSYRYKL [STEAP1]: the protein stability index reads like this: (treatment: DMSO) 2.31 ± 0.4; (treatment: MLN4924 1 uM, 8 h) 2.43 ± 0.53.
Taken in the same sequence, the figures for FGIVEIDGMLYILGGEDGEKELIS [GAN] were 2.35 ± 0.25 and 2.31 ± 0.29.
Taken in the same sequence, the figures for FIYYENMLLGVPRLRQLKVRNDSC [PKD2L1] were 2.33 ± 0.26 and 2.19 ± 0.3.
The like results for FKMPWKPTHPSSTHALAEWASRRE [CDC25B] were, in that order, 3.54 ± 0.12 and 3.63 ± 0.36.
